Measurements reported in patent US20220317121A1.

Assays:
Experiment in all cases: line blot with purified recombinant antigen
H8-CD2BP2[human] (human) = H8-CD2BP2[human] (human) (UniProt O95400)
[1] = target: H8-TJP1[human](aa1-575) (human) (UniProt Q07157)
[2] = target: NVL[human]-IF1-H6 (human) (UniProt O15381)
Chain of UniProt O15381 (O15381 other isoform, or with tags, fused parts or gaps limits assumed): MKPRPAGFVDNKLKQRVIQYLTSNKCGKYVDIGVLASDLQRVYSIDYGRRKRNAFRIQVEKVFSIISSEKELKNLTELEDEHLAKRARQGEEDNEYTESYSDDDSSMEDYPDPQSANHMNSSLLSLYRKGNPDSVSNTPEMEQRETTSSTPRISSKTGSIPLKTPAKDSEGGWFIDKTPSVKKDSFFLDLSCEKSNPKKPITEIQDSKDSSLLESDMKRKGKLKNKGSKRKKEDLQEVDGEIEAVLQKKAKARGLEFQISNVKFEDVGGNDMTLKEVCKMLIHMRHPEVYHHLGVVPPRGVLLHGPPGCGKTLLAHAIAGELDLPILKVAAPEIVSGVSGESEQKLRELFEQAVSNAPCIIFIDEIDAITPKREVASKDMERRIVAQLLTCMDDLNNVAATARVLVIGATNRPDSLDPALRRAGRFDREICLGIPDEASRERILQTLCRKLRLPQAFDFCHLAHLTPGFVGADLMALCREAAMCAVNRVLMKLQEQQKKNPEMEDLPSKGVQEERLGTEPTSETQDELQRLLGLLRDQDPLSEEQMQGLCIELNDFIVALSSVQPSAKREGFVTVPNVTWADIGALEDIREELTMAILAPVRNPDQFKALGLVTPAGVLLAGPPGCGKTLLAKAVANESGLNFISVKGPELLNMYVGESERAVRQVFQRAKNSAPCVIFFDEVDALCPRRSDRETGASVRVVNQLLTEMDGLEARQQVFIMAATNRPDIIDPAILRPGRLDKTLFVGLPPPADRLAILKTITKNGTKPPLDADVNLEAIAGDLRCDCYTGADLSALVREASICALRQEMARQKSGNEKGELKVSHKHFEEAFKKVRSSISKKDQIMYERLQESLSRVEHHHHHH

Chain of UniProt Q07157 (Q07157 other isoform, or with tags, fused parts or gaps limits assumed): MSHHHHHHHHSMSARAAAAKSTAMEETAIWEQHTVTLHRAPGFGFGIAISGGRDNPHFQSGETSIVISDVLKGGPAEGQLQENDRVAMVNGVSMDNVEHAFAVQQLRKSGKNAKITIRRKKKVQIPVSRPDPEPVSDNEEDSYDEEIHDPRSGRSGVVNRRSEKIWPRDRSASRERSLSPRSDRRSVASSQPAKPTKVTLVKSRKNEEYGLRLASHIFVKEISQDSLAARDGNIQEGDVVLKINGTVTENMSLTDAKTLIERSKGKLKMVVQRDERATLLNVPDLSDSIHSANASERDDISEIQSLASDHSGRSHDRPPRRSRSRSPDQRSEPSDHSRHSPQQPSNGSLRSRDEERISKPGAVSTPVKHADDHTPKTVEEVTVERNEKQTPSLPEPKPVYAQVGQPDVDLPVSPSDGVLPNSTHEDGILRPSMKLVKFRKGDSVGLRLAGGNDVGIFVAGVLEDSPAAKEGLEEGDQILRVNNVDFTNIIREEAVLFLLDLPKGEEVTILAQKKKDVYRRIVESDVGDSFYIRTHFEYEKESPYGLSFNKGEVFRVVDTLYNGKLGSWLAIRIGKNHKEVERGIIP
Chain of UniProt O95400 (O95400 other isoform, or with tags, fused parts or gaps limits assumed): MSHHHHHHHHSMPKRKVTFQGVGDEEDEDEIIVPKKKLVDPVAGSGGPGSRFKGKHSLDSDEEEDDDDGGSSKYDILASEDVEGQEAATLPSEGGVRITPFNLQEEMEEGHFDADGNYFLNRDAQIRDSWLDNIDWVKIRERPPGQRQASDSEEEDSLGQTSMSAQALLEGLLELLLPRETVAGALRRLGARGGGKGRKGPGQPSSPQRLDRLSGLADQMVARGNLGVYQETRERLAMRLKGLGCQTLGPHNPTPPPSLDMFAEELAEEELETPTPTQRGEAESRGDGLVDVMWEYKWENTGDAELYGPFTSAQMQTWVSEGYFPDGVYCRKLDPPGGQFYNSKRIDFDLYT

band intensity (H8-CD2BP2[human] (human)): 111
band intensity [1]: 101
band intensity [2]: 15
Substance: anti-His-tag-AP (monoclonal anti-His-AP antibody produced in mouse, A5588, Sigma-Aldrich)
